From article doi:10.1101/2020.06.03.132209 (bioRxiv, 2020)

Molecular target: T1, Dehydrodolichyl diphosphate synthase (DHDDS), full length (1-333), untagged (human, UniProt Q86SQ9-1 1-333)
T1 sequence: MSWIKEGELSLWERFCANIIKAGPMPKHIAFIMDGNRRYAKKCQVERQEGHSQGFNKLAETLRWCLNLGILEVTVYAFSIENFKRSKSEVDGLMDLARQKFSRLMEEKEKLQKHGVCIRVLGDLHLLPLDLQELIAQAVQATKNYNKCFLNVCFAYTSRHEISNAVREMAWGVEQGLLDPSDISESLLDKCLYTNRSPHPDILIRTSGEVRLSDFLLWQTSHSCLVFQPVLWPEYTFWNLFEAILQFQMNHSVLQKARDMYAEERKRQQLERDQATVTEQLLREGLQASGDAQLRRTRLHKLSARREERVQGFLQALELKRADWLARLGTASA
Assay: crystal structure

B1: NgBR^79-293 (Nogo-B receptor, N-terminal 78 amino acids deleted) (domain or fragment)
chain: AAAHHRMRWRADGRSLEKLPVHMGLVITEVEQEPSFSDIASLVVWCMAVGISYISVYDHQGIFKRNNSRLMDEILKQQQELLGLDCSKYSPEFANSNDKDDQVLNCHLAVKVLSPEDGKADIVRAAQDFCQLVAQKQKRPTDLDVDTLASLLSSNGCPDPDLVLKFGPVDSTLGFLPWHIRLTEIVSLPSHLNISYEDFFSALRQYAACEQRLGK
binding result: binds
